Test results reported in patent US20210102195A1 (TWIST BIOSCIENCE, published 2021).
Like-named read-outs stand apart in the source and are kept apart here. Each block holds one binder with its values, some of them ahead of it.

How the values were obtained:
[1] = molecular target: T1, CRTH2R (UniProt Q9Y5Y4 1-395, limits assumed); experiment: cell-based or functional assay
T1 sequence (looked up): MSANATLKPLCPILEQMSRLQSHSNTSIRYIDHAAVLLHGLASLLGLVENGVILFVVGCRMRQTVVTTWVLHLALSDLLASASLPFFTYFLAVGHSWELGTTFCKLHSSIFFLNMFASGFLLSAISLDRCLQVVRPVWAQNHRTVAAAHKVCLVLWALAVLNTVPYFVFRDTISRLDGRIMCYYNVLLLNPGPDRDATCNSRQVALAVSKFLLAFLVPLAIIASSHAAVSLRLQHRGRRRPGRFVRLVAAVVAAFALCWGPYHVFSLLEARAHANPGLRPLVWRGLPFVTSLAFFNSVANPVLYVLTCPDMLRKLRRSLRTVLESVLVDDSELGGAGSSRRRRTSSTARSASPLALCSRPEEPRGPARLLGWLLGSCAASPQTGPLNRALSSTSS

[2] = molecular target: T1, CRTH2R; experiment: flow cytometry (MFI), CHO CRTH2R-positive cells against parental CHO cells; same panel as in FIG. 15E; grey = CRTH2R cells, black = parental cells (no legend on the panel)
Procedure: (§1) Cell binding of anti-CRTH2R antibodies was determined by testing on CHO CRTH2R-positive cells (GFP+) and parental CHO cells (GFP−), comparing parental negative and target positive cells to rule out false-positives. Antibodies as listed in Table 14A were titrated starting at 100 nM (15 ug/mL) with 3-fold titrations, for a total of 8 points. Two antibodies (gPCR-51 and gPCR-52) were used as a positive control.

[3] = molecular target: T1, CRTH2R; experiment: flow cytometry (MFI), CHO CRTH2R-positive cells against parental CHO cells, 3-fold titration from 100 nM; grey = CRTH2R cells, black = parental cells (no legend on the panel)
Procedure: as §1

[4] = molecular target: T2, human TIGIT (human, UniProt Q495A1 22-141, limits assumed); experiment: monovalent affinity of the hTIGIT IgGs; method not named in Example 14
T2 construct: also called hTIGIT
T2 sequence (looked up): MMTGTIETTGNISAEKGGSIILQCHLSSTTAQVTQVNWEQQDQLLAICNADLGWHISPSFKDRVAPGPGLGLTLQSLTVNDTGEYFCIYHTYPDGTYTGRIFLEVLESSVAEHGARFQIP

[5] = molecular target: T1, CRTH2R; experiment: cell-based or functional assay; remark: listed apart in the source
[6] = molecular target: T1, CRTH2R; experiment: flow cytometry (MFI), titration 0.05-100 nM on CRTH2R cells against parent cells; no legend on the panel: grey curve and grey EC50 taken as the CRTH2R cells, black (ND) as the parent cells
[7] = molecular target: T1, CRTH2R; experiment: flow cytometry (MFI), CHO CRTH2R-positive cells against parental CHO cells; same panel as in FIG. 15B; grey = CRTH2R cells, black = parental cells (no legend on the panel)
Procedure: as §1

[8] = molecular target: T3, hCRTH2R (human, UniProt Q9Y5Y4 1-395); experiment: cell-based or functional assay
T3 sequence (looked up): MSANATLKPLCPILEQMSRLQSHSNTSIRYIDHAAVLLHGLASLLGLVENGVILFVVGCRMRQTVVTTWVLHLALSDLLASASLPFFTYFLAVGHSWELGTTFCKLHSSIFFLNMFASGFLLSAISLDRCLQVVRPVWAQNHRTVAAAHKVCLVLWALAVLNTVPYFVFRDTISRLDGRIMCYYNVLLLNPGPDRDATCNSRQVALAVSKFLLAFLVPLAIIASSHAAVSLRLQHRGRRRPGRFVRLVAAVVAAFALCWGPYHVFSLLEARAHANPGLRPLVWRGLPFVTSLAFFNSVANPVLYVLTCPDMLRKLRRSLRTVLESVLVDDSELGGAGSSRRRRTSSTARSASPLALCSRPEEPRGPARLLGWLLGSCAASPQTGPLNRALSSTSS

[9] = molecular target: T3, hCRTH2R; experiment: flow cytometry (MFI) cell binding titration, upper grey curve; cell lines not labelled on the sheet
[10] = molecular target: T3, hCRTH2R; experiment: flow cytometry (MFI) cell binding titration; number in grey print, taken with the upper grey curve; the sheet does not label the cell lines of the two curves
[11] = molecular target: T3, hCRTH2R; experiment: cell-based or functional assay; remark: listed apart in the source
[12] = molecular target: T3, hCRTH2R; experiment: flow cytometry (MFI) cell binding titration; number in grey print, taken with the upper grey curve; the sheet does not label the cell lines of the two curves; remark: listed apart in the source
[13] = molecular target: T3, hCRTH2R; experiment: cell-based or functional assay; remark: listed apart in the source
[14] = molecular target: T3, hCRTH2R; experiment: flow cytometry (MFI) cell binding titration; number in grey print, taken with the upper grey curve; the sheet does not label the cell lines of the two curves; remark: listed apart in the source

- IC50 fold difference of the PGD2 dose response (cAMP) with 100 nM IgG [1]: > 2 fold
- EC50 [2]: 19.6 nM
- EC50 [3]: 19.6 nM
B1: CRTH2-50 (antibody, V domains shown)
VH: QVQLVQSGAEVKKPGSSVKVSCKASGGTFSSYALSWVRKAPGQGLEWMGGTIPIFGTVNYAQKFQGRVTITADESTSTAYMELSSLRSEDTAVYYCARANQHFTRVIGQPSPAVPSRGYIYHGYHYYGMDVWGQGTLVTVSS
VL: QSALTQPASVSGSPGQSITISCTGTSSDIGGYNFVSWYQQHPGKAPKLMIYDVSNRPQGVSNRFSGSKSGNTASLTISGLQAEDEADYYCSSYTSSNTYVVFGGGTKLTVL
notes: CRTH2R IgG

- Kd [4]: 327 nM
B2: TIGIT-55-11 (antibody, V domains shown)
VH: EVQLLESGGGLVQPGGSLRLSCAASGFTFTNYGMSWVRQAPGKGLEWVSSISGSGSTTYYADSVKGRFTISRDNSKNTLYLQMNSLRAEDTAVYYCASVKRWGYYFNWWGQGTLVTVSS
VL: DIQMTQSPSSLSASVGDRVTITCRASQNINYYLNWYQQKPGKAPKLLIYGASSLQNGVPSRFSGSGSGTDFTLTISSLQPEDFATYYCQQSYITPYTGGGTKVEIK
notes: hTIGIT IgG

- Kd [4]: 148 nM
B4: TIGIT-55-12 (antibody, V domains shown)
VH: EVQLLESGGGLVQPGGSLRLSCAASGFTLSSYAMAWVRQAPGKGLEWVSTLSGSGGSTYYADSVKGRFTISRDNSKNTLYLQMNSLRAEDTAVYYCARVRVGAYDAFDIWGQGTLVTVSS
VL: DIQMTQSPYSLSASVGDRVTITCRASQSIRRYLNWYQQKPGKAPKLLIYRASTLQTGVPSRFSGSGSGTDFTLTISSLQPEDFATYYCQQTYSSPFTFGGGTKVEIK
notes: hTIGIT IgG

- Kd [4]: 153 nM
B5: TIGIT-55-06 (antibody, V domains shown)
VH: EVQLLESGGGLVQPGGSLRLSCAASGFTFSRYTMNWVRQAPGKGLEWVSGISGSGGGAYYADSVKGRFTISRDNSKNTLYLQMNSLRAEDTAVYYCARNSYGPPRSFGMDVWGQGTLVTVSS
VL: DIQMTQSPSSLSASVGDRVTITCRASQSISKYLNWYQQKPGKAPKLLIYGASSLRGGVPSRFSGSGSGTDFTLTISSLQPEDFATYYCQQSYRPPLTFGGGTKVEIK
notes: hTIGIT IgG

- Kd [4]: 112 nM
B6: TIGIT-55-13 (antibody, V domains shown)
VH: EVQLLESGGGLVQPGGSLRLSCAASGFTFSTYGMNWVRQAPGKGLEWVSTISGSGGSTYFADSVKGRFTISRDNSKNTLYLQMNSLRAEDTAVYYCARNSGWFMPFDYWGQGTLVTVSS
VL: DIQMTQSPSSLSASVGDRVTITCRTSQSISTYLNWYQQKPGKAPKLLIYATSRLQSGVPSRFSGSGSGTDFTLTISSLQPEDFATYYCQQSYTTPLTFGGGTKVEIK
notes: hTIGIT IgG

- Kd [4]: 231 nM
B7: TIGIT-55-07 (antibody, V domains shown)
VH: EVQLLESGGGLVQPGGSLRLSCAASGFTFSSYGMTWVRQAPGKGLEWVSAISGRGSSTYYADSVKGRFTISRDNSKNTLYLQMNSLRAEDTAVYYCARTPYRSGWADYWGQGTLVTVSS
VL: DIQMTQSPSSLSASVGDRVTITCRASQNIKTYLNWYQQKPGKAPKLLIYAASSLHTGVPSRFSGSGSGTDFTLTISSLQPEDFATYYCQQTYSIPQTFGGGTKVEIK
notes: hTIGIT IgG

- Kd [4]: 139 nM
B8: TIGIT-55-14 (antibody, V domains shown)
VH: EVQLLESGGGLVQPGGSLRLSCAASGFMFSRYAMSWVRQAPGKGLEWVSSISGSGGTTYYADSVKGRFTISRDNSKNTLYLQMNSLRAEDTAVYYCARRGSGWYIDSWGQGTLVTVSS
VL: DIQMTQSPSSLSASVGDRVTITCRASQSVSRYLNWYQQKPGKAPKLLIYGSSNLQSGVPSRFSGSGSGTDFTLTISSLQPEDFATYYCQESYSTPFTFGGGTKVEIK
notes: hTIGIT IgG

- Kd [4]: 113 nM
B9: TIGIT-55-08 (antibody, V domains shown)
VH: EVQLLESGGGLVQPGGSLRLSCAASGFMFSDYAMSWVRQAPGKGLEWVSGISGSGGYTYYADSVKGRFTISRDNSKNTLYLQMNSLRAEDTAVYYCTRSWYYYYGMDVWGQGTLVTVSS
VL: DIQMTQSPSSLSASVGDRVTITCRAGQSIRSYLNWYQQKPGKAPKLLIYASSNLQSGVPSRFSGSGSGTDFTLTISSLQPEDFATYYCQQSYSTPLLTFGGGTKVEIK
notes: hTIGIT IgG

The next lines start with the binder.

B3: CRTH2-41-51 (Fc fusion, not shown: a dimerising Fc or GST)
chain: EVQLVESGGGLVQPGGSLRLSCAASGGIFRFNAMGWFRQAPGKERELVAGISGSGGDTYYADSVKGRFTISADNSKNTAYLQMNSLKPEDTAVYYCAAFRGIMRPDWGQGTLVTVSS
- IC50 fold diff. of the PGD2 dose response in the CRTH2 DiscoverX allosteric cAMP assay (+ CRTH2-41-51-VHH against + no Ab) [5]: 2.18 fold
- EC50 [6]: 0.181 nM

B10: CRTH2-27 (antibody, V domains shown)
VH: QVQLVESGGGVVQPGRSLRLSCAASGFTFDNYGMHWVRQAPGKGLEWVAVISYEGSNKKYADSVKGRFTISRDNSKNTLYLQMNSLRAEDTAVYYCARDMYYDFGSIYGEDVVGELPEVVPADDAFDIWGQGTLVTVSS
VL: QSALTQPASVSGSPGQSITISCTGTSNDVGAYNFVSWYQQHPGKAPKLMIYDISNRPSGVSNRFSGSKSGNTASLTISGLQAEDEADYYCSSYTRSNTRVFGGGTKLTVL
notes: CRTH2R IgG
- IC50 fold difference of the PGD2 dose response (cAMP) with 100 nM IgG [1]: > 2 fold
- EC50 [7]: 42 nM
- EC50 [3]: 42 nM

B11: CRTH2-48-3 (antibody, V domains shown)
VH: EVQLVESGGGLVQAGGSLRLSCAASGSIFRINAMGWFRQAPGKEREGVAAINNFGTTKYADSVKGRFTISADNAKNTVYLQMNSLKPEDTAVYYCAAVRWGPRNDDRYDWGQGTQVTVSS
VL: DIQMTQSPSSLSASVGDRVTITCRASQSISSDLNWYQQKPGKAPKLLIYFASGLQSGVPSRFSGSGSGTDFTLTISSLQPEDFATYYCQQSYSSPLTFGGGTKVEIKR
notes: CRTH2R immunoglobulin (IgG); also called CRTH2-48-03
- IC50 of PGD2 in the CRTH2 DiscoverX cAMP assay after 200nM IgG pre-incubation (+ no Ab: 0.2487), the axis reads PGD2 [8]: 0.356 nM
- EC50 (read off the curve) [9]: ~2 nM
- EC50 [10]: 0.579 nM

B12: CRTH2-48-21 (antibody, V domains shown)
VH: EVQLVESGGGLVQAGGSLRLSCAASGSFFSINAMGWFRQAPGKEREFVAGITRSGVSTSYADSVKGRFTISADNAKNTVYLQMNSLKPEDTAVYYCAAHRIVVGGTSVGDWRWGQGTQVTVSS
VL: DIQMTQSPSSLSASVGDRVTITCRTSQSISNYLNWYQQKPGKAPKLLIYATSSLESGVPSRFSGSGSGTDFTLTISSLQPEDFATYYCQQSYSTLLTFGGGTKVEIKR
notes: CRTH2R immunoglobulin (IgG)
- IC50 of PGD2 in the CRTH2 DiscoverX cAMP assay after 200nM IgG pre-incubation (+ no Ab: 0.4559), the axis reads PGD2 [11]: 0.567 nM
- EC50 [12]: 1.32 nM

B13: CRTH2-48-27 (antibody, V domains shown)
VH: EVQLVESGGGLVQAGGSLRLSCAASGSIFHINAMGWFRQAPGKEREGVAAINNFGTTKYADSVKGRFTISANNAKNTVYLQMNSLKPEDTAVYYCAAVRWGPRNDDRYDWGQGTLVTVSS
VL: DIQMTQSPSSLSASVGDRVTITCRASQSISRYLHWYQQKPGKAPKLLIYGASRLESGVPSRFSGSGSGTDFTLTISSLQPEDFATYYCRQSYSTPWTFGGGTKVEIKR
notes: CRTH2R immunoglobulin (IgG)
- IC50 of PGD2 in the CRTH2 DiscoverX cAMP assay after 200nM IgG pre-incubation (+ no Ab: 0.4559), the axis reads PGD2 [13]: 0.407 nM
- EC50 [14]: 0.859 nM

B14: CRTH2-9 (antibody, V domains shown)
VH: QVQLVQSGAEVKKPGSSVKVSCKASGGTFSSYAISWVRQAPGQGLEWMGGIIPIFGTANYAQKFQGRVTITADESTSTAYMELSSLRSEDTAVYYCARDMYYDFWLGDQSTGSLIGAEVVPADDAFDIWGQGTLVTVSS
VL: QSVLTQPPSVSAAPGQKVTISCSGSTSNIGNNYVSWYQQLPGTAPKLLIYENDERPSGIPDRFSGSKSGTSATLGITGLQTGDEADYYCATWDTRLSAVVFGGGTKLTVL
notes: CRTH2R IgG
- IC50 fold difference of the PGD2 dose response (cAMP) with 100 nM IgG [1]: > 2 fold
- antagonist activity in PGD2-induced cAMP assay at 33 nM IgG [1]: > 20%
- EC50 [7]: 14.9 nM
- EC50 [3]: 14.9 nM
